Assay results: patent publication US20230218721A1 (ZHEJIANG DOER BIOLOGICS, published 2023)
Starred links: 1 amine or outer side, 2 acyl side, 3 side chain; linkers in the order of their positions; H or OH if unused. Groups on a side chain read outwards from the residue. No end group written: not given here. *: point of attachment. C20 diacid = O=C(O)CCCCCCCCCCCCCCCCCCC(=O)*; C18 diacid = O=C(O)CCCCCCCCCCCCCCCCC(=O)*; γGlu = O=C(O)[C@H](CCC(=O)[*:2])N[*:1]; Palmitoyl = CCCCCCCCCCCCCCCC(=O)*; AEEA = NCCOCCOCC(=O)O

T1: glucose-dependent insulinotropic polypeptide receptor (GIPR) (human (printed as 'Humanized'), UniProt P48546 22-466)
T1 sequence (looked up): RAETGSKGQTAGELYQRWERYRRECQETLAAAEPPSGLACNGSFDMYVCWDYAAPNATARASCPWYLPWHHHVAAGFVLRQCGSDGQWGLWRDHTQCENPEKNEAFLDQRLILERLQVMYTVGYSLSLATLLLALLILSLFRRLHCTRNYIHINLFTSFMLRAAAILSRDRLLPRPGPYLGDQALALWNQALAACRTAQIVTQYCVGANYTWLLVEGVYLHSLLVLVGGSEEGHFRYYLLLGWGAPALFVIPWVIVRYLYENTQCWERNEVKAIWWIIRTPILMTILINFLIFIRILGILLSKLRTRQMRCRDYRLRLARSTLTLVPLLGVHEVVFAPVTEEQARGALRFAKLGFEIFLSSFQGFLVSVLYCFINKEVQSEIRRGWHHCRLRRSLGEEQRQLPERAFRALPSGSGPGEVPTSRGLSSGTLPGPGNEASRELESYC

B1: incretin analogue P3YELAN (peptide)
peptide: YSEGTFTSDK([γGlu-Palmitoyl])SKYLDSQAAQDFVQWLLAGGPSSGAPPPS-NH2
modifications: N-terminus assumed
SMILES: CCCCCCCCCCCCCCCC(=O)N[C@@H](CCC(=O)NCCCC[C@H](NC(=O)[C@H](CC(=O)O)NC(=O)[C@H](CO)NC(=O)[C@@H](NC(=O)[C@H](Cc1ccccc1)NC(=O)[C@@H](NC(=O)CNC(=O)[C@H](CCC(=O)O)NC(=O)[C@H](CO)NC(=O)[C@@H](N)Cc1ccc(O)cc1)[C@@H](C)O)[C@@H](C)O)C(=O)N[C@@H](CO)C(=O)N[C@@H](CCCCN)C(=O)N[C@@H](Cc1ccc(O)cc1)C(=O)N[C@@H](CC(C)C)C(=O)N[C@@H](CC(=O)O)C(=O)N[C@@H](CO)C(=O)N[C@@H](CCC(N)=O)C(=O)N[C@@H](C)C(=O)N[C@@H](C)C(=O)N[C@@H](CCC(N)=O)C(=O)N[C@@H](CC(=O)O)C(=O)N[C@@H](Cc1ccccc1)C(=O)N[C@H](C(=O)N[C@@H](CCC(N)=O)C(=O)N[C@@H](Cc1c[nH]c2ccccc12)C(=O)N[C@@H](CC(C)C)C(=O)N[C@@H](CC(C)C)C(=O)N[C@@H](C)C(=O)NCC(=O)NCC(=O)N1CCC[C@H]1C(=O)N[C@@H](CO)C(=O)N[C@@H](CO)C(=O)NCC(=O)N[C@@H](C)C(=O)N1CCC[C@H]1C(=O)N1CCC[C@H]1C(=O)N1CCC[C@H]1C(=O)N[C@@H](CO)C(N)=O)C(C)C)C(=O)O
B2: glucagon derivative P5YELAN (peptide)
peptide: YSEGTFTSDK([AEEA-AEEA-γGlu-C18 diacid])SKYLDSQAAQDFVQWLLAGGPSSGAPPPS-NH2
modifications: N-terminus assumed
SMILES: CC(C)C[C@H](NC(=O)[C@H](CC(C)C)NC(=O)[C@H](Cc1c[nH]c2ccccc12)NC(=O)[C@H](CCC(N)=O)NC(=O)[C@@H](NC(=O)[C@H](Cc1ccccc1)NC(=O)[C@H](CC(=O)O)NC(=O)[C@H](CCC(N)=O)NC(=O)[C@H](C)NC(=O)[C@H](C)NC(=O)[C@H](CCC(N)=O)NC(=O)[C@H](CO)NC(=O)[C@H](CC(=O)O)NC(=O)[C@H](CC(C)C)NC(=O)[C@H](Cc1ccc(O)cc1)NC(=O)[C@H](CCCCN)NC(=O)[C@H](CO)NC(=O)[C@H](CCCCNC(=O)COCCOCCNC(=O)COCCOCCNC(=O)CC[C@H](NC(=O)CCCCCCCCCCCCCCCCC(=O)O)C(=O)O)NC(=O)[C@H](CC(=O)O)NC(=O)[C@H](CO)NC(=O)[C@@H](NC(=O)[C@H](Cc1ccccc1)NC(=O)[C@@H](NC(=O)CNC(=O)[C@H](CCC(=O)O)NC(=O)[C@H](CO)NC(=O)[C@@H](N)Cc1ccc(O)cc1)[C@@H](C)O)[C@@H](C)O)C(C)C)C(=O)N[C@@H](C)C(=O)NCC(=O)NCC(=O)N1CCC[C@H]1C(=O)N[C@@H](CO)C(=O)N[C@@H](CO)C(=O)NCC(=O)N[C@@H](C)C(=O)N1CCC[C@H]1C(=O)N1CCC[C@H]1C(=O)N1CCC[C@H]1C(=O)N[C@@H](CO)C(N)=O
B3: glucagon derivative P9YELAN (peptide)
peptide: YSEGTFTSDK([AEEA-AEEA-γGlu-C20 diacid])SKYLDSQAAQDFVQWLLAGGPSSGAPPPS-NH2
modifications: N-terminus assumed
SMILES: CC(C)C[C@H](NC(=O)[C@H](CC(C)C)NC(=O)[C@H](Cc1c[nH]c2ccccc12)NC(=O)[C@H](CCC(N)=O)NC(=O)[C@@H](NC(=O)[C@H](Cc1ccccc1)NC(=O)[C@H](CC(=O)O)NC(=O)[C@H](CCC(N)=O)NC(=O)[C@H](C)NC(=O)[C@H](C)NC(=O)[C@H](CCC(N)=O)NC(=O)[C@H](CO)NC(=O)[C@H](CC(=O)O)NC(=O)[C@H](CC(C)C)NC(=O)[C@H](Cc1ccc(O)cc1)NC(=O)[C@H](CCCCN)NC(=O)[C@H](CO)NC(=O)[C@H](CCCCNC(=O)COCCOCCNC(=O)COCCOCCNC(=O)CC[C@H](NC(=O)CCCCCCCCCCCCCCCCCCC(=O)O)C(=O)O)NC(=O)[C@H](CC(=O)O)NC(=O)[C@H](CO)NC(=O)[C@@H](NC(=O)[C@H](Cc1ccccc1)NC(=O)[C@@H](NC(=O)CNC(=O)[C@H](CCC(=O)O)NC(=O)[C@H](CO)NC(=O)[C@@H](N)Cc1ccc(O)cc1)[C@@H](C)O)[C@@H](C)O)C(C)C)C(=O)N[C@@H](C)C(=O)NCC(=O)NCC(=O)N1CCC[C@H]1C(=O)N[C@@H](CO)C(=O)N[C@@H](CO)C(=O)NCC(=O)N[C@@H](C)C(=O)N1CCC[C@H]1C(=O)N1CCC[C@H]1C(=O)N1CCC[C@H]1C(=O)N[C@@H](CO)C(N)=O

Experiments:
Experiment in all cases: cell-based or functional assay
[1] = molecular target: human glucagon-like peptide-1 receptor (GLP-1R) (human (printed as 'Humanized'), UniProt P43220 24-463)
[2] = molecular target: T1, glucose-dependent insulinotropic …
glucagon receptor (GCGR) = glucagon receptor (GCGR) (human (printed as 'Humanized'), UniProt P47871 26-477)
Chain of glucagon receptor (GCGR) (P47871 26-477): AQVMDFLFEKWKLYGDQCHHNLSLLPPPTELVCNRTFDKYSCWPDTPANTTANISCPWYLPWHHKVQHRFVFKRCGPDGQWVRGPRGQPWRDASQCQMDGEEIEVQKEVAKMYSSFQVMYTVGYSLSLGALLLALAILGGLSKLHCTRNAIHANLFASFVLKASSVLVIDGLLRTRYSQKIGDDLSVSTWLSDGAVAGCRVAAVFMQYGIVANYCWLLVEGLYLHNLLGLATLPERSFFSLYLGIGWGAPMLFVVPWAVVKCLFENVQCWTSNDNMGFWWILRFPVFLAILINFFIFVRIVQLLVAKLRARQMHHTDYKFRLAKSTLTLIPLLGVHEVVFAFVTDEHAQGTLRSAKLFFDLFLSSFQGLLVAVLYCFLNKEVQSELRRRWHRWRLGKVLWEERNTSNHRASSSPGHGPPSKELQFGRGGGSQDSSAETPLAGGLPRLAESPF

Binder	GLP-1R agonist activity (EC50, nM) [1] [nM]	GIPR agonist activity (EC50, nM) [2] [nM]	GCGR agonist activity (EC50, nM) (glucagon receptor (GCGR)) [nM]
B1	0.11	0.004	4.57
B2	0.81	1.56	5.87
B3	4.25	0.19	4.77
